Substitutions are numbered along the chain they refer to.
Assays:
[1] = target: recombinant human OX40-his (Sino Biological, Cat#:10481-H03H) (human) (UniProt P43489); assay: ELISA, coated hOX40-his
[2] = target: recombinant human OX40-his (Sino Biological, Cat#:10481-H03H) (human) (UniProt P43489); assay: ELISA on coated human OX40-His, OD450
[3] = target: rhesus OX40 expressed on HEK293A cells (rhesus); assay: FACS on HEK293A cells
[4] = target: human OX40 expressed on HEK293A cells (human) (UniProt P43489); assay: FACS on HEK293A cells
human OX40 expressed on HEK293A cells (human), sequence (P43489 29-277 limits assumed): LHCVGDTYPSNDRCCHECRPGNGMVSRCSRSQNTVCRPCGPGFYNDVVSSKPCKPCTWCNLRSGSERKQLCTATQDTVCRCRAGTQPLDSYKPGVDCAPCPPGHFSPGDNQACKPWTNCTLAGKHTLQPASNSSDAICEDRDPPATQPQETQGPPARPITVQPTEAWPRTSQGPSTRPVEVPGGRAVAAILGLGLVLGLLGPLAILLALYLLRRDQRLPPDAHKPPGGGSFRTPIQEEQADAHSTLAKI

[5] = target: recombinant rhesus OX40-his (Sino Biological, Cat#:90846-C08H) (rhesus monkey); assay: ELISA, coated rhOX40-his
recombinant rhesus OX40-his (Sino Biological, Cat#:90846-C08H) (rhesus monkey), sequence (P43489 other isoform, or with tags, fused parts or gaps C08H C08H limits assumed): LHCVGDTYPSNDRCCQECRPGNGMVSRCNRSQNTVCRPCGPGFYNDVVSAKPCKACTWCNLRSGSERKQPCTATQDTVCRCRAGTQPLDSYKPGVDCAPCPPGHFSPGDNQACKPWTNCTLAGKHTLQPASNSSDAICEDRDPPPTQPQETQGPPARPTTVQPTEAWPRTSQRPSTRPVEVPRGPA

[6] = target: recombinant human OX40-his (Sino Biological, Cat#:10481-H03H) (human) (UniProt P43489); assay: SPR Biacore 8K, OX40-His on chip, antibody injected
[7] = target: human OX40 expressed on HEK293A cells (human) (UniProt P43489); assay: FACS on HEK293A/huOX40 cells, MFI
[8] = target: rhesus OX40 expressed on HEK293A cells (rhesus); assay: FACS on HEK293A/rhOX40 cells, MFI
[9] = target: human OX40-CD40 fusion protein on HEK-Blue reporter cells (human); assay: cell-based or functional assay
human OX40-CD40 fusion protein on HEK-Blue reporter cells (human), sequence (chain, as listed by the source limits assumed): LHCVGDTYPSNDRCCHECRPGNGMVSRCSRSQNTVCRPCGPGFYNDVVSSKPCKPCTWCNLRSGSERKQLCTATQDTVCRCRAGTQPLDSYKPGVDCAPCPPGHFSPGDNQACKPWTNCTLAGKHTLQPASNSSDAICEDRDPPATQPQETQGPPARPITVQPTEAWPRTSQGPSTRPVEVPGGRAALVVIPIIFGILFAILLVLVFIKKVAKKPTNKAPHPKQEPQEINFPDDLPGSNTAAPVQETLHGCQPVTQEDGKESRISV

[10] = target: recombinant rhesus OX40-his (Sino Biological, Cat#:90846-C08H) (rhesus monkey); assay: ELISA on coated rhesus OX40-His, OD450

rhesus OX40 expressed on HEK293A cells (rhesus), sequence (P43489 other isoform, or with tags, fused parts or gaps limits assumed): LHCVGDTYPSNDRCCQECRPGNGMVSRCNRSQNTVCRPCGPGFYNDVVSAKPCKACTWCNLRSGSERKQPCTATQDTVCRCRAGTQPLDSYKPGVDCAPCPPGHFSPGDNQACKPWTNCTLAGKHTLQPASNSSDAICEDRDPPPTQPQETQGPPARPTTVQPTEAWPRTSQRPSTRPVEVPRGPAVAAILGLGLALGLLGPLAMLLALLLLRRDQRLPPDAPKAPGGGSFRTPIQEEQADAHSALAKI
recombinant human OX40-his (Sino Biological, Cat#:10481-H03H) (human), sequence (P43489 29-214 limits assumed): as the sequence (P43489 other isoform, or with tags, fused parts or gaps C08H C08H limits assumed) above, with Q16H, N29S, A50S, A55P, P70L, P145A, T159I, R173G, R183G, P185R counted along it

B1: MEDI0562 (antibody, INN chains, looked up, V domains shown)
VH: QVQLQESGPGLVKPSQTLSLTCAVYGGSFSSGYWNWIRKHPGKGLEYIGYISYNGITYHNPSLKSRITINRDTSKNQYSLQLNSVTPEDTAVYYCARYKYDYDGGHAMDYWGQGTLVTVSS
VL: DIQMTQSPSSLSASVGDRVTITCRASQDISNYLNWYQQKPGKAPKLLIYYTSKLHSGVPSRFSGSGSGTDYTLTISSLQPEDFATYYCQQGSALPWTFGQGTKVEIK
- EC50 [1]: 0.0651 µg/mL
- EC50 (read off the curve) [2]: 3 ng/mL
- EC50 [3]: 0.088 µg/mL
- EC50 [4]: 0.0935 µg/mL
- EC50 [5]: 0.0546 µg/mL
- Kd [6]: 1.79 nM
- koff [6]: 0.000154 s⁻¹
- kon [6]: 86300 M⁻¹ s⁻¹
- EC50 (read off the curve) [7]: 300 ng/mL
- EC50 (read off the curve) [8]: 300 ng/mL
- EC50, agonistic activity in HEK-Blue assay [9]: 310 ng/mL
- EC50 (read off the curve) [10]: 3 ng/mL

B2: RG7888 (antibody, INN chains, looked up, V domains shown)
VH: EVQLVQSGAEVKKPGASVKVSCKASGYTFTDSYMSWVRQAPGQGLEWIGDMYPDNGDSSYNQKFRERVTITRDTSTSTAYLELSSLRSEDTAVYYCVLAPRWYFSVWGQGTLVTVSS
VL: B1 VL with K53R, H55R, Y71F, S92H, A93T, W96P
- EC50 [1]: 0.0637 µg/mL
- EC50 (read off the curve) [2]: 3 ng/mL
- EC50 [3]: 0.113 µg/mL
- EC50 [4]: 0.134 µg/mL
- EC50 [5]: 0.0668 µg/mL
- Kd [6]: 0.00549 nM
- koff [6]: 1.76e-06 s⁻¹
- kon [6]: 322000 M⁻¹ s⁻¹
- EC50, agonistic activity in HEK-Blue assay [9]: 121 ng/mL
- EC50 (read off the curve) [10]: 3 ng/mL

Source: patent US10442866
